{"source": "paper PMC11480844", "about": "(2024); further: test concentration or dose not given here", "parents": {"B1": {"name": "H2-Kb / Ed10 (parent complex)", "chain 1": "GEQVEQRPPHLSVREGDSAFIICTYTDSATAYFYWYKQEPGAGLQLLMSVFSNVDRKEEQGLTVLLNKKDKRLSLNLTAAHPGDSAVYFCAVRGTGYQNFYFGKGTSLTVIP", "chain 2": "AQTIHQWPVAEIKAVGSPLSLGCTIKGKSSPNLYWYWQATGGTLQQLFYSITVGQVESVVQLNLSASRPKDDQFILSTEKLLLSHSGFYLCAWSPGYEQYFGPGTRLTVL", "chain 3": "not shown", "chain 4": "IQKTPQIQVYSRHPPENGKPNILNCYVTQFHPPHIEIQMLKNGKKIPKVEMSDMSFSKDWSFYILAHTEFTPTETDTYACRVKHDSMAEPKTVYWDRDM", "chain 5": "SIINFEKL"}, "B2": {"name": "H2-Kb / Ed16-1 (parent complex)", "chain 1": "GEQVEQRPPHLSVREGDSAVITCTYTDPNSYYFFWYKQEPGASLQLLMKVFSSTEINEGQGFTVLLNKKDKRLSLNLTAAHPGDSAAYFCAVSGSNNRIFFGDGTQLVVKP", "chain 2": "EAAVTQSPRSKVAVTGGKVTLSCHQTNNHDYMYWYRQDTGHGLRLIHYSYVADSTEKGDIPDGYKASRPSQENFSLILELASLSQTAVYFCASRTGTDYTFGSGTRLLVI", "chain 3": "not shown", "chain 4": "B1 chain 4", "chain 5": "SIINFEKL"}}, "data": [{"variants_of": "B1", "assay": "% of reporter cells activated (NFAT-GFP), raw", "values": [{"variant": "chain 5 F5H", "ratio to parent": 0.876}, {"variant": "chain 5 F5S", "ratio to parent": 0.764}, {"variant": "chain 5 F5K", "ratio to parent": 0.688}, {"variant": "chain 5 F5D", "ratio to parent": 0.897}, {"variant": "chain 5 F5Q", "ratio to parent": 0.879}, {"variant": "chain 5 F5T", "ratio to parent": 0.758}, {"variant": "chain 5 F5W", "ratio to parent": 0.659}, {"variant": "chain 5 F5G", "ratio to parent": 0.581}, {"variant": "chain 5 F5V", "ratio to parent": 0.775}, {"variant": "chain 5 F5Y", "ratio to parent": 1.03}, {"variant": "chain 5 F5C", "ratio to parent": 0.857}, {"variant": "chain 5 F5R", "ratio to parent": 0.815}, {"variant": "chain 5 F5L", "ratio to parent": 0.925}, {"variant": "chain 5 F5P", "ratio to parent": 0.437}, {"variant": "chain 5 F5M", "ratio to parent": 0.958}, {"variant": "chain 5 F5N", "ratio to parent": 0.711}, {"variant": "chain 5 F5A", "ratio to parent": 0.912}, {"variant": "chain 5 F5E", "ratio to parent": 0.78}, {"variant": "chain 5 F5I", "ratio to parent": 0.815}, {"variant": "chain 5 E6L", "ratio to parent": 0.0597}, {"variant": "chain 5 E6F", "ratio to parent": 0.0734}, {"variant": "chain 5 E6Q", "ratio to parent": 0.19}, {"variant": "chain 5 E6D", "ratio to parent": 0.557}, {"variant": "chain 5 E6V", "ratio to parent": 0.00689}, {"variant": "chain 5 E6M", "ratio to parent": 0.384}, {"variant": "chain 5 E6R", "ratio to parent": 0.0435}, {"variant": "chain 5 E6N", "ratio to parent": 0.0352}, {"variant": "chain 5 E6K", "ratio to parent": 0.878}, {"variant": "chain 5 E6P", "ratio to parent": 0.045}, {"variant": "chain 5 E6H", "ratio to parent": 0.377}, {"variant": "chain 5 E6I", "ratio to parent": 0.00258}, {"variant": "chain 5 E6T", "ratio to parent": 0.0117}, {"variant": "chain 5 E6W", "ratio to parent": 0.00924}, {"variant": "chain 5 E6C", "ratio to parent": 0.00556}, {"variant": "chain 5 E6A", "ratio to parent": 0.0198}, {"variant": "chain 5 E6Y", "ratio to parent": 0.503}, {"variant": "chain 5 I2H", "ratio to parent": 0.915}, {"variant": "chain 5 I2W", "ratio to parent": 0.751}, {"variant": "chain 5 I2V", "ratio to parent": 0.962}, {"variant": "chain 5 I2F", "ratio to parent": 0.941}, {"variant": "chain 5 I2P", "ratio to parent": 0.973}, {"variant": "chain 5 I2C", "ratio to parent": 0.907}, {"variant": "chain 5 I2D", "ratio to parent": 0.977}, {"variant": "chain 5 I2N", "ratio to parent": 0.841}, {"variant": "chain 5 I2T", "ratio to parent": 1.02}, {"variant": "chain 5 I2G", "ratio to parent": 0.939}, {"variant": "chain 5 I2Y", "ratio to parent": 0.898}, {"variant": "chain 5 I2E", "ratio to parent": 0.966}, {"variant": "chain 5 I2K", "ratio to parent": 0.876}, {"variant": "chain 5 I2A", "ratio to parent": 1.02}, {"variant": "chain 5 I2Q", "ratio to parent": 0.914}, {"variant": "chain 5 I2M", "ratio to parent": 0.933}, {"variant": "chain 5 I2L", "ratio to parent": 0.955}, {"variant": "chain 5 I2R", "ratio to parent": 0.712}, {"variant": "chain 5 I2S", "ratio to parent": 0.988}, {"variant": "chain 5 S1F", "ratio to parent": 0.726}, {"variant": "chain 5 S1N", "ratio to parent": 0.524}, {"variant": "chain 5 S1Y", "ratio to parent": 1}, {"variant": "chain 5 S1E", "ratio to parent": 0.888}, {"variant": "chain 5 S1A", "ratio to parent": 0.977}, {"variant": "chain 5 S1D", "ratio to parent": 0.938}, {"variant": "chain 5 S1C", "ratio to parent": 0.759}, {"variant": "chain 5 S1G", "ratio to parent": 0.978}, {"variant": "chain 5 S1M", "ratio to parent": 1.02}, {"variant": "chain 5 S1L", "ratio to parent": 0.914}, {"variant": "chain 5 S1T", "ratio to parent": 1.01}, {"variant": "chain 5 S1P", "ratio to parent": 0.946}, {"variant": "chain 5 S1Q", "ratio to parent": 0.931}, {"variant": "chain 5 S1R", "ratio to parent": 0.72}, {"variant": "chain 5 S1I", "ratio to parent": 0.814}, {"variant": "chain 5 S1V", "ratio to parent": 0.913}, {"variant": "chain 5 S1K", "ratio to parent": 0.841}, {"variant": "chain 5 N4Q", "ratio to parent": 0.189}, {"variant": "chain 5 N4G", "ratio to parent": 0.0998}, {"variant": "chain 5 N4P", "ratio to parent": 0.551}, {"variant": "chain 5 N4M", "ratio to parent": 0.127}, {"variant": "chain 5 N4I", "ratio to parent": 0.0807}, {"variant": "chain 5 N4A", "ratio to parent": 0.353}, {"variant": "chain 5 N4R", "ratio to parent": 0.104}, {"variant": "chain 5 N4E", "ratio to parent": 0.178}, {"variant": "chain 5 N4S", "ratio to parent": 0.33}, {"variant": "chain 5 N4C", "ratio to parent": 0.13}, {"variant": "chain 5 N4Y", "ratio to parent": 0.354}, {"variant": "chain 5 N4D", "ratio to parent": 0.847}, {"variant": "chain 5 N4K", "ratio to parent": 0.342}, {"variant": "chain 5 N4V", "ratio to parent": 0.00517}, {"variant": "chain 5 N4H", "ratio to parent": 0.777}, {"variant": "chain 5 N4W", "ratio to parent": 0.424}, {"variant": "chain 5 N4T", "ratio to parent": 0.0278}, {"variant": "chain 5 N4F", "ratio to parent": 0.0998}, {"variant": "chain 5 N4L", "ratio to parent": 0.728}, {"variant": "chain 5 I3E", "ratio to parent": 0.916}, {"variant": "chain 5 I3L", "ratio to parent": 0.972}, {"variant": "chain 5 I3R", "ratio to parent": 0.631}, {"variant": "chain 5 I3G", "ratio to parent": 0.724}, {"variant": "chain 5 I3S", "ratio to parent": 0.873}, {"variant": "chain 5 I3M", "ratio to parent": 0.913}, {"variant": "chain 5 I3A", "ratio to parent": 0.96}, {"variant": "chain 5 I3N", "ratio to parent": 0.683}, {"variant": "chain 5 I3F", "ratio to parent": 0.713}, {"variant": "chain 5 I3H", "ratio to parent": 0.828}, {"variant": "chain 5 I3D", "ratio to parent": 0.691}, {"variant": "chain 5 I3W", "ratio to parent": 0.739}, {"variant": "chain 5 I3T", "ratio to parent": 0.829}, {"variant": "chain 5 I3V", "ratio to parent": 0.927}, {"variant": "chain 5 I3K", "ratio to parent": 0.828}, {"variant": "chain 5 I3Q", "ratio to parent": 0.826}, {"variant": "chain 5 I3P", "ratio to parent": 0.933}, {"variant": "chain 5 I3C", "ratio to parent": 0.914}, {"variant": "chain 5 I3Y", "ratio to parent": 0.368}, {"variant": "chain 5 K7Q", "ratio to parent": 0.0405}, {"variant": "chain 5 K7N", "ratio to parent": 0.726}, {"variant": "chain 5 K7D", "ratio to parent": 0.355}, {"variant": "chain 5 K7E", "ratio to parent": 0.00697}, {"variant": "chain 5 K7R", "ratio to parent": 0.668}, {"variant": "chain 5 K7V", "ratio to parent": 0.563}, {"variant": "chain 5 K7M", "ratio to parent": 0.28}, {"variant": "chain 5 K7W", "ratio to parent": 0.601}, {"variant": "chain 5 K7S", "ratio to parent": 0.744}, {"variant": "chain 5 K7C", "ratio to parent": 0.143}, {"variant": "chain 5 K7F", "ratio to parent": 0.184}, {"variant": "chain 5 K7T", "ratio to parent": 0.102}, {"variant": "chain 5 K7I", "ratio to parent": 0.00197}, {"variant": "chain 5 K7G", "ratio to parent": 0.79}, {"variant": "chain 5 K7P", "ratio to parent": 0.685}, {"variant": "chain 5 K7H", "ratio to parent": 0.183}, {"variant": "chain 5 K7Y", "ratio to parent": 0.402}, {"variant": "chain 5 K7A", "ratio to parent": 0.495}, {"variant": "chain 5 K7L", "ratio to parent": 0.461}, {"variant": "chain 5 L8E", "ratio to parent": 0.721}, {"variant": "chain 5 L8V", "ratio to parent": 0.721}, {"variant": "chain 5 L8G", "ratio to parent": 0.937}, {"variant": "chain 5 L8C", "ratio to parent": 0.921}, {"variant": "chain 5 L8A", "ratio to parent": 0.858}, {"variant": "chain 5 L8R", "ratio to parent": 0.949}, {"variant": "chain 5 L8H", "ratio to parent": 0.916}, {"variant": "chain 5 L8N", "ratio to parent": 0.862}, {"variant": "chain 5 L8M", "ratio to parent": 0.813}, {"variant": "chain 5 L8I", "ratio to parent": 0.864}, {"variant": "chain 5 L8S", "ratio to parent": 0.74}, {"variant": "chain 5 L8F", "ratio to parent": 0.838}, {"variant": "chain 5 L8T", "ratio to parent": 0.81}, {"variant": "chain 5 L8W", "ratio to parent": 0.702}, {"variant": "chain 5 L8Y", "ratio to parent": 0.956}, {"variant": "chain 5 L8Q", "ratio to parent": 0.897}, {"variant": "chain 5 L8D", "ratio to parent": 0.803}, {"variant": "chain 5 L8K", "ratio to parent": 0.88}, {"variant": "chain 5 L8P", "ratio to parent": 0.885}]}, {"variants_of": "B2", "assay": "% of reporter cells activated (NFAT-GFP), raw", "values": [{"variant": "chain 5 L8K", "ratio to parent": 0.951}, {"variant": "chain 5 S1D", "ratio to parent": 0.0292}]}]}
